T1: human ribonucleotide reductase large subunit RRM1 (human) (UniProt P23921)
T1 sequence: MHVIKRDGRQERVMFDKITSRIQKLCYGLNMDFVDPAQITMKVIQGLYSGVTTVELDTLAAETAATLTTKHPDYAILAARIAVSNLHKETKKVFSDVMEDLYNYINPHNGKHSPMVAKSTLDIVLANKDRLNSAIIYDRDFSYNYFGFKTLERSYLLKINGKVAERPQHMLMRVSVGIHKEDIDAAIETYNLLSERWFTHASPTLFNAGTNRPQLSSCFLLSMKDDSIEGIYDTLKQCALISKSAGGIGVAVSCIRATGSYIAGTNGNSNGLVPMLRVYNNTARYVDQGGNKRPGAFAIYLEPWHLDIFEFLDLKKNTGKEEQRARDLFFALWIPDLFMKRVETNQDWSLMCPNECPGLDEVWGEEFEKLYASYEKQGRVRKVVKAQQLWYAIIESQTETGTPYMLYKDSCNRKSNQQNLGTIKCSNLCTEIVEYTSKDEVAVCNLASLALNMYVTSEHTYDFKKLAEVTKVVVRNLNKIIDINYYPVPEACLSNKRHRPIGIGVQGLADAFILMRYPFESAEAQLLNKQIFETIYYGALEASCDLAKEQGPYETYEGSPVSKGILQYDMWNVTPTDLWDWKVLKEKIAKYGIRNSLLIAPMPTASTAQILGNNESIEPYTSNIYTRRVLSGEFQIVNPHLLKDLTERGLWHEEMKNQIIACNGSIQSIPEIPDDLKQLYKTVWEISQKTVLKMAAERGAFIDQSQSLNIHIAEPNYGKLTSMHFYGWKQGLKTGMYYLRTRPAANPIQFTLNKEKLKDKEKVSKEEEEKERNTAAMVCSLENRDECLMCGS

B1: hRRM2B N221S (enzyme)
chain: MGDPERPEAAGLDQDERSSSDTNESEIKSNEEPLLRKSSRRFVIFPIQYPDIWKMYKQAQASFWTAEEVDLSKDLPHWNKLKADEKYFISHILAFFAASDGIVNENLVERFSQEVQVPEARCFYGFQILIENVHSEMYSLLIDTYIRDPKKREFLFNAIETMPYVKKKADWALRWIADRKSTFGERVVAFAAVEGVFFSGSFAAIFWLKKRGLMPGLTFSSELISRDEGLHCDFACLMFQYLVNKPSEERVREIIVDAVKIEQEFLTEALPVGLIGMNCILMKQYIEFVADRLLVELGFSKVFQAENPFDFMENISLEGKTNFFEKRVSEYQRFAVMAETTDNVFTLDADF
B2: hRRM2B F198G (enzyme)
chain: MGDPERPEAAGLDQDERSSSDTNESEIKSNEEPLLRKSSRRFVIFPIQYPDIWKMYKQAQASFWTAEEVDLSKDLPHWNKLKADEKYFISHILAFFAASDGIVNENLVERFSQEVQVPEARCFYGFQILIENVHSEMYSLLIDTYIRDPKKREFLFNAIETMPYVKKKADWALRWIADRKSTFGERVVAFAAVEGVFGSGSFAAIFWLKKRGLMPGLTFSNELISRDEGLHCDFACLMFQYLVNKPSEERVREIIVDAVKIEQEFLTEALPVGLIGMNCILMKQYIEFVADRLLVELGFSKVFQAENPFDFMENISLEGKTNFFEKRVSEYQRFAVMAETTDNVFTLDADF
B3: hRRM2B F202G (enzyme)
chain: MGDPERPEAAGLDQDERSSSDTNESEIKSNEEPLLRKSSRRFVIFPIQYPDIWKMYKQAQASFWTAEEVDLSKDLPHWNKLKADEKYFISHILAFFAASDGIVNENLVERFSQEVQVPEARCFYGFQILIENVHSEMYSLLIDTYIRDPKKREFLFNAIETMPYVKKKADWALRWIADRKSTFGERVVAFAAVEGVFFSGSGAAIFWLKKRGLMPGLTFSNELISRDEGLHCDFACLMFQYLVNKPSEERVREIIVDAVKIEQEFLTEALPVGLIGMNCILMKQYIEFVADRLLVELGFSKVFQAENPFDFMENISLEGKTNFFEKRVSEYQRFAVMAETTDNVFTLDADF
B4: hRRM2B F206G (enzyme)
chain: MGDPERPEAAGLDQDERSSSDTNESEIKSNEEPLLRKSSRRFVIFPIQYPDIWKMYKQAQASFWTAEEVDLSKDLPHWNKLKADEKYFISHILAFFAASDGIVNENLVERFSQEVQVPEARCFYGFQILIENVHSEMYSLLIDTYIRDPKKREFLFNAIETMPYVKKKADWALRWIADRKSTFGERVVAFAAVEGVFFSGSFAAIGWLKKRGLMPGLTFSNELISRDEGLHCDFACLMFQYLVNKPSEERVREIIVDAVKIEQEFLTEALPVGLIGMNCILMKQYIEFVADRLLVELGFSKVFQAENPFDFMENISLEGKTNFFEKRVSEYQRFAVMAETTDNVFTLDADF

The target of this experiment is T1, human ribonucleotide reductase large subunit RRM1 (human).
In the case of B1, the RNR activity of the reconstituted complex (CDP to dCDP, HPLC), percent of wild-type hRRM2B; hRRM1 2 μM, hRRM2B 6 μM (% of wild type) was found to be 33.

Molecule B2 gave an RNR activity of the reconstituted complex (CDP to dCDP, HPLC), percent of wild-type hRRM2B; hRRM1 2 μM, hRRM2B 6 μM (% of wild type) of 19.1.

B3 had an RNR activity of the reconstituted complex (CDP to dCDP, HPLC), percent of wild-type hRRM2B; hRRM1 2 μM, hRRM2B 6 μM (% of wild type) of 21.5. The molecule B4 showed an RNR activity of the reconstituted complex (CDP to dCDP, HPLC), percent of wild-type hRRM2B; hRRM1 2 μM, hRRM2B 6 μM (% of wild type) of 11.7.

For the origin of these results see publication PMC10645729.
